From USRE47123 (Sanofi, dated 2018)

Key:
[1] = target: T1, monkey EphA2 on VERO cells (monkey (Cercopithecus aethiops)); test: FACS titration on monkey VERO cells, non-linear regression for one-site binding (apparent KD)
T1 construct: whole, on cells

human EphA2 receptor [2] = target: T2, human EphA2 receptor (human, UniProt P29317 24-976); test: FACS titration on HUVEC cells (apparent KD)
T2 construct: whole, on cells; also called hu-EphA2

murine EphA2 receptor = target: T3, murine EphA2 receptor (murine, UniProt Q03145 26-977); test: FACS, cells over-expressing murine EphA2
T3 construct: whole, on cells; also called mu-EphA2
T3 sequence (Q03145 26-977): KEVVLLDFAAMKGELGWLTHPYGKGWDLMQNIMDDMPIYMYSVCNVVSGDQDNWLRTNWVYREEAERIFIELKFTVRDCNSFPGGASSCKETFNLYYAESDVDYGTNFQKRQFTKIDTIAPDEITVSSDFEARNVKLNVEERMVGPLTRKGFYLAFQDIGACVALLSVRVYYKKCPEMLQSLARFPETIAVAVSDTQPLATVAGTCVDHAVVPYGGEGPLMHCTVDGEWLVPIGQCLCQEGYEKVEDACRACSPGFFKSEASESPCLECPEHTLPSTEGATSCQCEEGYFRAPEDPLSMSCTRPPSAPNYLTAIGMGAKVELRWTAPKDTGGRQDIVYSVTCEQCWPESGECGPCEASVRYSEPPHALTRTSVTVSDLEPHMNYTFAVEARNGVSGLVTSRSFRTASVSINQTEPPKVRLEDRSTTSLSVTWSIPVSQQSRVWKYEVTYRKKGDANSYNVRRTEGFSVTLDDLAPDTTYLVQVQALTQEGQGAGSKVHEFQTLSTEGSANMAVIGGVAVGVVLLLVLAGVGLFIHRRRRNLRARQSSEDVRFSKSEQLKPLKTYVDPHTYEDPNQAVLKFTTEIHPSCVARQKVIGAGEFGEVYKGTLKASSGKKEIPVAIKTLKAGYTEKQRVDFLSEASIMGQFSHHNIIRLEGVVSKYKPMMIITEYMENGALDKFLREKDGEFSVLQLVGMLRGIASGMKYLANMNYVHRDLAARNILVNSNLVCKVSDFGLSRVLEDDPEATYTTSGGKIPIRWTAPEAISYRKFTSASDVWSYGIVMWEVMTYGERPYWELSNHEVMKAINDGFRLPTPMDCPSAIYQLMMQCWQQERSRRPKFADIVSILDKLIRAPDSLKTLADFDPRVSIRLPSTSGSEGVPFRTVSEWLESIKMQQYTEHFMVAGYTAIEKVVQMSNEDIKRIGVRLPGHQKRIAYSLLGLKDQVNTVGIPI

human EphA2 receptor [3] = target: T2, human EphA2 receptor; test: FACS titration on cells with human EphA2, non-linear regression for one-site binding (apparent KD)
human EphA2 receptor [4] = target: T2, human EphA2 receptor; test: FACS titration on cells with human EphA2, same protocol (apparent KD)
human EphA2 receptor [5] = target: T2, human EphA2 receptor; test: FACS titration on HUVEC cells, non-linear regression for one-site binding (apparent KD)

T2 sequence (P29317 24-976): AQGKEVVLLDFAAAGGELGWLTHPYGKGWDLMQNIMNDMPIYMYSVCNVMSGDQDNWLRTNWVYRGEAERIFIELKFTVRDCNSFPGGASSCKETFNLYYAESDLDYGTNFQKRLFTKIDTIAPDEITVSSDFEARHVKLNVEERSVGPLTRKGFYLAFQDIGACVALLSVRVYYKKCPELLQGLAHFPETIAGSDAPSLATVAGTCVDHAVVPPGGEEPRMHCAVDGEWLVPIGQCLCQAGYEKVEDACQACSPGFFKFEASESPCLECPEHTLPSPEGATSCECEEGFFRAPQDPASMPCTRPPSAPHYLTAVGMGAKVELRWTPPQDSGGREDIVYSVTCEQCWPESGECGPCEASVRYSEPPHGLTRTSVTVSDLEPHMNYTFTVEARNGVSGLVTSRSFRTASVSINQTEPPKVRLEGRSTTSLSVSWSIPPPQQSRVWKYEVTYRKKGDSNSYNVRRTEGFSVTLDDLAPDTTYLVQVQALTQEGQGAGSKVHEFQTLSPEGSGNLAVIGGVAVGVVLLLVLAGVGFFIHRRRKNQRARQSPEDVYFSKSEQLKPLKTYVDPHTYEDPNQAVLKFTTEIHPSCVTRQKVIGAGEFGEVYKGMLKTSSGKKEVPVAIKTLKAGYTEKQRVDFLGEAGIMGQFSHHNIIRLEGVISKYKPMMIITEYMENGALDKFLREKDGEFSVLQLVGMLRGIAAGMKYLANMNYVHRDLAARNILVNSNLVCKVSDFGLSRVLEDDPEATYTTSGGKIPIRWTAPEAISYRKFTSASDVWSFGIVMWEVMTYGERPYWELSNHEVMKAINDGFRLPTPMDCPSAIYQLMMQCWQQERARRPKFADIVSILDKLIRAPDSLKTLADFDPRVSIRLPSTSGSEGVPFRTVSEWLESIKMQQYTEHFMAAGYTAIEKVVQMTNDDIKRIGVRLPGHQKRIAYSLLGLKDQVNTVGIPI

Binder | Kd [1] [nM] | Kd (human EphA2 receptor [2]) [nM] | binding result (murine EphA2 receptor) | Kd (human EphA2 receptor [3]) [nM] | Kd (human EphA2 receptor [4]) [nM] | Kd (human EphA2 receptor [5]) [nM]
murine anti-EphA2 monoclonal antibody EphA2-N2 (antibody, V domains shown, Murine monoclonal antibody from hybridoma PTA-8408) VH: EVQLQQSGPELVKPGASVKISCKASGYTFTDYNMHWVKQSHGKSLEWIGFIYPYNGGTGYNQRFKNKATLTVDTSSSTAYMEVRSLTSEDSAVYFCARGYYYGRHFDYWGQGTTLTVSS VL: QIVLTQSPALMSASPGEKVTMTCSASSSVSYMYWYQQKPRSSPKPWIYITSNLASGVPARFSGSGSGTSYSLTISSMEAEDAATYYCQQWSSNPPTFGGGTKLEIKR | – | – | – | – | 0.05 | –
murine anti-EphA2 monoclonal antibody EphA2-N1 (antibody, V domains shown, Murine monoclonal antibody from hybridoma PTA-8407) VH: EVQLQQSGPDLVKPGASVKISCKASGYRFTEYNMHWMKQSHGESLEWIGYIYPYNGDTGYRQKFKNMATLTADISSNTAYMELRSLTSDDSAVYFCARWGYGSGGGFTYWGQGTLVTVSA VL: DIVLTQSPGSLAVSLGQRATISCRASESVDTYGNSFMHWYQQKAGQPPRLLIYRASNLESGIPARFSGSGSRTDFTLTINPVEADDVATYYCQQSNEDPLTFGAGTKLELKR | – | – | – | – | 0.18 | –
murine anti-EphA2 monoclonal antibody 37.1F5 (antibody, V domains shown, Purified murine monoclonal antibody from hybridoma PTA-7661; also called mu37.1F5; 37.1F5 antibody) VH: EVQLQQSGPELVKPGASMKISCRASGYSFTGYTMNWVRQSHGKNLEWIGLINPHNGGSSYNLKFKGKATLTVDKSSSTAYMELLSLTSEDSAVYYCVRWGDYGSFAYWGQGTLVTVSA VL: DIVLTQSPASLAVSLGQRATISCRASESVDTFGYSFIYWYQQKPGQPPRLLIYRASNLESGIPARFSGSGSRTDFTLTINPVEADDVATYYCQQSNEDPPTFGGGTKLEIKR | 0.05 | 0.01 | – | 0.07 | – | –

The next lines start with the values.

Kd [1] [nM] | Kd (human EphA2 receptor [2]) [nM] | binding result (murine EphA2 receptor) | Kd (human EphA2 receptor [3]) [nM] | Kd (human EphA2 receptor [4]) [nM] | Kd (human EphA2 receptor [5]) [nM] | Binder
0.07 | 0.06 | binds | 0.14 | – | – | murine anti-EphA2 monoclonal antibody 53.2H11 (antibody, V domains shown, Purified murine monoclonal antibody from hybridoma PTA-7662; also called 53.2H11 antibody) VH: EVQLQQSGPELVKPGASVKISCKASGYSFTAYYMHWVKQSHVKSLEWIGLVNPYNGFSSYNQNFEDKASLTVDKFSSTAYMELHSLTSEDSAVYYCAREFYGYRYFDVWGAGTAVTVSS VL: not shown
0.15 | – | binds | – | – | 0.3 | murine anti-EphA2 monoclonal antibody 37.3D7 (antibody, V domains shown, Purified murine monoclonal antibody from hybridoma PTA-7660; also called mu37.3D7; 37.3D7 antibody) VH: QVQLQQPGSELVRPGASVQLSCKASGYSFTSYWMHWVRQRPGQGLQWIGNIYPGTGNTNYDEKFMNKATLTVDTYSSTTYMQLSSLTSEDSAVYYCARWGLVRYFFAMDYWGQGTSVTVSS VL: QIVLTQSPAIMSASLGERVTMTCTVSSSVNSSYLHWYQQKPGSSPKLWIYSTSNLPSGVPARFSGSGSGTSYSLTISTIESEDAATYYCHQYHRSPQFTFGSGTKLEIKR
